Measured values taken from IntAct's records for PubMed 17558407.

B1: Nephrocystin-4 (Homo sapiens), O75161 (parent)
chain: MNDWHRIFTQNVLVPPHPQRARQPWKESTAFQCVLKWLDGPVIRQGVLEVLSEVECHLRVSFFDVTYRHFFGRTWKTTVKPTKRPPSRIVFNEPLYFHTSLNHPHIVAVVEVVAEGKKRDGSLQTLSCGFGILRIFSNQPDSPISASQDKRLRLYHGTPRALLHPLLQDPAEQNRHMTLIENCSLQYTLKPHPALEPAFHLLPENLLVSGLQQIPGLLPAHGESGDALRKPRLQKPITGHLDDLFFTLYPSLEKFEEELLELHVQDHFQEGCGPLDGGALEILERRLRVGVHNGLGFVQRPQVVVLVPEMDVALTRSASFSRKVVSSSKTSSGSQALVLRSRLRLPEMVGHPAFAVIFQLEYVFSSPAGVDGNAASVTSLSNLACMHMVRWAVWNPLLEADSGRVTLPLQGGIQPNPSHCLVYKVPSASMSSEEVKQVESGTLRFQFSLGSEEHLDAPTEPVSGPKVERRPSRKPPTSPSSPPAPVPRVLAAPQNSPVGPGLSISQLAASPRSPTQHCLARPTSQLPHGSQASPAQAQEFPLEAGISHLEADLSQTSLVLETSIAEQLQELPFTPLHAPIVVGTQTRSSAGQPSRASMVLLQSSGFPEILDANKQPAEAVSATEPVTFNPQKEESDCLQSNEMVLQFLAFSRVAQDCRGTSWPKTVYFTFQFYRFPPATTPRLQLVQLDEAGQPSSGALTHILVPVSRDGTFDAGSPGFQLRYMVGPGFLKPGERRCFARYLAVQTLQIDVWDGDSLLLIGSAAVQMKHLLRQGRPAVQASHELEVVATEYEQDNMVVSGDMLGFGRVKPIGVHSVVKGRLHLTLANVGHPCEQKVRGCSTLPPSRSRVISNDGASRFSGGSLLTTGSSRRKHVVQAQKLADVDSELAAMLLTHARQGKGPQDVSRESDATRRRKLERMRSVRLQEAGGDLGRRGTSVLAQQSVRTQHLRDLQVIAAYRERTKAESIASLLSLAITTEHTLHATLGVAEFFEFVLKNPHNTQHTVTVEIDNPELSVIVDSQEWRDFKGAAGLHTPVEEDMFHLRGSLAPQLYLRPHETAHVPFKFQSFSAGQLAMVQASPGLSNEKGMDAVSPWKSSAVPTKHAKVLFRASGGKPIAVLCLTVELQPHVVDQVFRFYHPELSFLKKAIRLPPWHTFPGAPVGMLGEDPPVHVRCSDPNVICETQNVGPGEPRDIFLKVASGPSPEIKDFFVIIYSDRWLATPTQTWQVYLHSLQRVDVSCVAGQLTRLSLVLRGTQTVRKVRAFTSHPQELKTDPKGVFVLPPRGVQDLHVGVRPLRAGSRFVHLNLVDVDCHQLVASWLVCLCCRQPLISKAFEIMLAAGEGKGVNKRITYTNPYPSRRTFHLHSDHPELLRFREDSFQVGGGETYTIGLQFAPSQRVGEEEILIYINDHEDKNEEAFCVKVIYQ
B2: Protein fantom (Homo sapiens), Q68CZ1-2 (parent)
chain: MSGPTDETAGDLPVKDTGLNLFGMGGLQETSTTRTMKSRQAVSRVSREELEDRFLRLHDENILLKQHARKQEDKIKRMATKLIRLVNDKKRYERVGGGPKRLGRDVEMEEMIEQLQEKVHELEKQNETLKNRLISAKQQLQTQGYRQTPYNNVQSRINTGRRKANENAGLQECPRKGIKFQDADVAETPHPMFTKYGNSLLEEARGEIRNLENVIQSQRGQIEELEHLAEILKTQLRRKENEIELSLLQLREQQATDQRSNIRDNVEMIKLHKQLVEKSNALSAMEGKFIQLQEKQRTLRISHDALMANGDELNMQLKEQRLKCCSLEKQLHSMKFSERRIEELQDRINDLEKERELLKENYDKLYDSAFSAAHEEQWKLKEQQLKVQIAQLETALKSDLTDKTEILDRLKTERDQNEKLVQENRELQLQYLEQKQQLDELKKRIKLYNQENDINADELSEALLLIKAQKEQKNGDLSFLVKVDSEINKDLERSMRELQATHAETVQELEKTRNMLIMQHKINKDYQMEVEAVTRKMENLQQDYELKVEQYVHLLDIRAARIHKLEAQLKDIAYGTKQYKFKPEIMPDDSVDEFDETIHLERGENLFEIHINKVTFSSEVLQASGDKEPVTFCTYAFYDFELQTTPVVRGLHPEYNFTSQYLVHVNDLFLQYIQKNTITLEVHQAYSTEYETIAACQLKFHEILEKSGRIFCTASLIGTKGDIPNFGTVEYWFRLRVPMDQAIRLYRERAKALGYITSNFKGPEHMQSLSQQAPKTAQLSSTDSTDGNLNELHITIRCCNHLQSRASHLQPHPYVVYKFFDFADHDTAIIPSSNDPQFDDHMYFPVPMNMDLDRYLKSESLSFYVFDDSDTQENIYIGKVNVPLISLAHDRCISGIFELTDHQKHPAGTIHVILKWKFAYLPPSGSITTEDLGNFIRSEEPEVVQRLPPASSVSTLVLAPRPKPRQRLTPVDKKVSFVDIMPHQSDVSQEGSVDEVKENTEKMQQGKDDVSLLSEGQLAEQSLASSEDETEITEDLEPEVEEDMSASDSDDCIIPGPISKNIKQPSEKIRIEIIALSLNDSQVTMDDTIQRLFVECRFYSLPAEETPVSLPKPKSGQWVYYNYSNVIYVDKENNKAKRDILKAILQKQEMPNRSLRFTVVSDPPEDEQDLECEDIGVAHVDLADMFQEGRDLIEQNIDVFDARADGEGIGKLRVTVEALHALQSVYKQYRDDLEA
partner: B1 chain

Variants of: B1
Settings: with RPGRIP1L

Row | effect of a mutation on the interaction | Variant
1 | decreasing interaction | G754R

Variants of: B2
Settings: with nphp4_human NPHP4, O75161

Row | effect of a mutation on the interaction | Variant
2 | decreasing interaction | T615P
